US20060217308A1, “Compositions for the treatment of tumor pathologies, comprising internalin B (ln1B) of Listeria monocytogene protein or a fragment thereof” (priority 2005, published 2006)

What was measured:
Assay type in all cases: cell-based, human
Met [1] = experiment: Maintenance of InIB-induced degradation of Met in the presence of HGF; details: HeLa cells, HGF 1 nM + InIB 5 nM, 1% serum medium
Method: FIG. 9 depicts immunodetection of Met from total cell lysates. Serum-containing media (1%) with HGF (1 nM), HGF (1 nM)+InIB (5 nM), or without either HGF or InIB (control) was added to HeLa cells. Cells were recovered at the indicated times after addition of HGF, and HGF+InIB, resuspended in SDS-PAGE sample buffer, and immediately boiled for 5 minutes.
Shortly after InIB treatment, Met is very rapidly degraded. Thus, whether InIB-induced degradation of Met is maintained for longer periods of time was tested. In fact, InIB-induced degradation of Met is maintained in time.

Met [2] = experiment: In1B-induced ubiquitination of Met (anti-Met immunoprecipitation, anti-ubiquitin blot) in HeLa cells
Method: (A) Listeria monocytogenes EGD (BUG600) (MOI 25) or purified In1B (5 nM) were added (+) for two minutes to HeLa cells. Samples were immunoprecipitated against Met and blotted against ubiquitin using P4D1 monoclonal antibody. (B) In1B was added to HeLa cells for two minutes and samples were re-immunoprecipitated against Met. Samples were blotted against ubiquitin (Ub) or Met. (C) Increasing amounts of In1B were added to HeLa cells (1 to 6 corresponding to 0, 0.22, 0.44, 0.88, 1.75, […], 5 nM respectively) for two minutes. Extracts were immunoprecipitated against Met and blotted against Met or ubiquitin (Ub). (D) As C, but 1 to 6 correspond to 0, 3.5, 10, 20, 40, 80 nM In1B, respectively. (E) 5 nm of purified In1B was added to HeLa cells for the indicated times. Cell extracts were immunoprecipitated (IP) against Met and blotted (WB) against Met or ubiquitin (Ub). At the left of all panels the molecular weight markers are indicated in kDa. In C and D, 8% acrylamide gels were used, while 10% acrylamide gels were used in A, B, and E.
(§1) Cells, bacteria and growth conditions. The human cell line used was HeLa (ATCC number CCL-2) grown as recommended by ATCC. Typically, cells were serum starved for three hours before the addition of In1B. The bacterial strains used were Listeria monocytogenes BUG600 and BUG1461. They were grown in BHI medium, which in the case […] contained 5 μg/ml of erythromycin.
(§2) Assays. Immunoprecipitation, Re-immunoprecipitation, and immunoblots were performed as described before (31). In1B purification was performed as described (54).
It has been previously described that the ubiquitin ligase Cbl is recruited to the Met complex during the first minute after cell treatment with soluble In1B (31). Whether Listeria infection promotes ubiquitination of Met was studied. Epithelial HeLa cells were infected with Listeria monocytogenes (at a m.o.i. 25) or treated with purified In1B (5 nM) (FIG. 1A) for two minutes. Cellular extracts were immunoprecipitated using an antibody that recognizes Met and ubiquitination of immunoprecipitated proteins was tested with an anti-ubiquitin antibody. A clear increase in the amount of ubiquitinated proteins associated with Met was detected after infection with Listeria.
To assess whether the signal observed after In1B treatment corresponded to Met ubiquitination, a re-immunoprecipitation assay was performed. Anti-Met immunoprecipitates from cells samples treated (or not) with In1B were denatured (boiled in presence of 1% SDS), to dissociate Met complexes, and re-immunoprecipitated using anti-Met antibodies. The resulting samples were immunoblotted against ubiquitin (FIG. 1B left panel) and Met (FIG. 1B right panel). Ubiquitin was only detectable in the lane corresponding to In1B treated samples, whereas Met was present in both lanes corresponding to In1B-treated or non-treated samples.
In order to determine the minimal amount of In1B necessary to trigger Met ubiquitination, HeLa cells were treated with increasing amount of In1B for two minutes. Cell extracts were then immunoprecipitated using the anti-Met antibody and blotted with anti ubiquitin or anti Met antibodies (FIGS. 1C and 1D). 1.75 nM of In1B was sufficient to induce ubiquitination of Met. […] Note that ubiquitinated Met migrated slower and than non-ubiquitinated in 8% acrylamide SDS-PAGE gels (FIGS. 1C and 1D), in agreement with an increase in apparent molecular weight of ubiquitinated proteins. Again, Met detection was always weaker after ubiquitination, supporting the previous observation that ubiquitination of Met was leading to Met degradation.
Next, the kinetics of In1B-dependent ubiquitination of Met were tested. In1B (5 nM) was added during increasing time periods to HeLa cells and cell extracts were immunoprecipitated using anti-Met antibodies (FIG. 1E). In1B-induced ubiquitination was maximal two minutes after treatment and declined thereafter. […]

Met [3] = experiment: Kinetics of phosphorylation of Met after In1B (IP Met, blot phospho-tyrosine); details: HeLa cells, In1B 5 nM (FIG. 8)
Method: FIG. 8 depicts the kinetics of phosphorylation and ubiquitination of Met. 5 nm of purified In1B was added to HeLa cells for the indicated times. Cell extracts were immunoprecipitated (IP) against Met and blotted (WB) against phospho-tyrosine (P-Tyr), Met or ubiquitin (Ub).
Ligand-induced ubiquitination of RTKs is preceded by phosphorylation of the receptor, which is then recognized and ubiquitinated by the ubiquitin ligase Cbl (33). As previously shown (27), In1B rapidly stimulates Met phosphorylation and the kinetics of ubiquitination of Met follows that of phosphorylation with a maximum at two minutes after stimulation (FIG. 8).

Met [4] = experiment: In1B-induced degradation of Met, anti-Met immunoblot of total HeLa cell extracts
Method: FIG. 2 depicts the degradation and de-novo synthesis of Met. (A) HeLa cells were treated at the indicated times with 5 nM In1B and cellular extracts were blotted against Met. (B) Cells were treated as in A, but blotted at the same time with anti-Met antibody and Streptavidin. Stars indicate nonspecific bands recognized by streptavidin and the square indicates Met. (C) The experiment was performed as in A, but cells were pre-treated with […] of cycloheximide for 90 minutes before addition of In1B. (D) This experiment was performed as in A, but In1B was removed three minutes after it was added. Actin is shown as the loading control in A, C and D. The molecular mass of the markers is indicated in kDa.
as §1, §2
To study In1B-induced degradation of Met in more detail, HeLa cells were treated during increasing periods with In1B (5 nM) and anti-Met immunoblots were performed directly on total cell extracts (FIG. 2A).
When In1B is present, de-novo synthesized Met was in turn ubiquitinated and then degraded (FIG. 2A).

Chain of Met (P08581 25-1390): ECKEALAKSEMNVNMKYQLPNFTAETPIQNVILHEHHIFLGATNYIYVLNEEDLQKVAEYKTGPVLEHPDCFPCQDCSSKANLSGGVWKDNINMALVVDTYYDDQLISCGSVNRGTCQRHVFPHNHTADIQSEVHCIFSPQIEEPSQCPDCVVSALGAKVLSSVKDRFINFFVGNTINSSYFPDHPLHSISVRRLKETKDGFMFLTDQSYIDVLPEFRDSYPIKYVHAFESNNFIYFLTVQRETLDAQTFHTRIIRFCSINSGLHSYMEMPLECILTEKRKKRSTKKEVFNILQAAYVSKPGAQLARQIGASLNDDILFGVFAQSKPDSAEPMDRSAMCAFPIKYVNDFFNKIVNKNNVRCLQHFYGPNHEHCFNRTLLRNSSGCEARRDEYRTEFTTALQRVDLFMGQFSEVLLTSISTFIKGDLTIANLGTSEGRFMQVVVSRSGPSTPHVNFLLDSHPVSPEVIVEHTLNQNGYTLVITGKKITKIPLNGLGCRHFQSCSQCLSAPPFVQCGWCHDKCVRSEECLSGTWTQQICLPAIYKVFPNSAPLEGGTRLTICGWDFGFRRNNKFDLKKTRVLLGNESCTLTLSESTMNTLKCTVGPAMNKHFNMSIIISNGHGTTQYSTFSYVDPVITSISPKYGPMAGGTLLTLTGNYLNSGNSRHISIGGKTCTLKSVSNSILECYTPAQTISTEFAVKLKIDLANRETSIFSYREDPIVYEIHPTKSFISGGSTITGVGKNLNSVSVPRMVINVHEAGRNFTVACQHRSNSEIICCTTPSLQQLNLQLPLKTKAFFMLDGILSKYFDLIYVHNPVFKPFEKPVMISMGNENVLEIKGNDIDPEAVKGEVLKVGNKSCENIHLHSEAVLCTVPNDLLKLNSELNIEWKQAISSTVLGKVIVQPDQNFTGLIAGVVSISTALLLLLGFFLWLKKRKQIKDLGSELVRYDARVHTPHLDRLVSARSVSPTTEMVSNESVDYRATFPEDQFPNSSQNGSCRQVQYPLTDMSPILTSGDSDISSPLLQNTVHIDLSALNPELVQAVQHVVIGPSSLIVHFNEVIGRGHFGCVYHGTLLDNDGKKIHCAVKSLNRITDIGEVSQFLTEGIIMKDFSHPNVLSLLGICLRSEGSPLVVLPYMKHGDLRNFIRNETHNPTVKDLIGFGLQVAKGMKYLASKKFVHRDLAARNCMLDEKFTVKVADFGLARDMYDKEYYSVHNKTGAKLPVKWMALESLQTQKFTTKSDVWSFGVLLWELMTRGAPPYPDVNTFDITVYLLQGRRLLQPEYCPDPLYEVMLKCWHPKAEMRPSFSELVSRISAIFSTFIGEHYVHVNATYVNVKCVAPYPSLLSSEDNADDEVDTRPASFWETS

B1: In1B: Listeria monocytogenes surface protein of the internalin family that interacts with Met; purified soluble protein (protein, UniProt P0DQD2 31-630, looked up)
Internalin B: AKVQAETITVPTPIKQIFSDDAFAETIKDNLKKKSVTDAVTQNELNSIDQIIANNSDIKSVQGIQYLPNVTKLFLNGNKLTDIKPLANLKNLGWLFLDENKVKDLSSLKDLKKLKSLSLEHNGISDINGLVHLPQLESLYLGNNKITDITVLSRLTKLDTLSLEDNQISDIVPLAGLTKLQNLYLSKNHISDLRALAGLKNLDVLELFSQECLNKPINHQSNLVVPNTVKNTDGSLVTPEIISDDGDYEKPNVKWHLPEFTNEVSFIFYQPVTIGKAKARFHGRVTQPLKEVYTVSYDVDGTVIKTKVEAGTRITAPKPPTKQGYVFKGWYTEKNGGHEWNFNTDYMSGNDFTLYAVFKAETTEKAVNLTRYVKYIRGNAGIYKLPREDNSLKQGTLASHRCKALTVDREARNGGKLWYRLKNIGWTKAENLSLDRYDKMEYDKGVTAYARVRNASGNSVWTKPYNTAGAKHVNKLSVYQGKNMRILREAKTPITTWYQFSIGGKVIGWVDTRALNTFYKQSMEKPTRLTRYVSANKAGESYYKVPVADNPVKRGTLAKYKNQKLIVDCQATIEGQLWYRIRTSSTFIGWTKAANLRAQK
Met [1]
  time for which InIB-induced degradation of Met is maintained: at least 24 hours
Met [2]; In1B 5 nM
  time of maximal In1B-induced ubiquitination of Met: two
  time of new wave of Met ubiquitination after addition of In1B: 30 min
Met [2]; In1B 5 nM, anti-Met blot of immunoprecipitates
  time at which a new band corresponding to Met appeared after addition of In1B: 15 min
Met [2]; In1B two minutes, re-immunoprecipitated anti-Met, blot anti-ubiquitin
  ubiquitination of Met after In1B treatment (re-immunoprecipitation assay): induces the ubiquitination of Met
Met [2]; increasing amount of In1B for two minutes
  minimal amount of In1B necessary to trigger Met ubiquitination: 1.75 nM
Met [2]; two minutes, 3.5 to 80 nM In1B (FIG. 1D)
  Met ubiquitination using higher amount of In1B: did not significantly increase
Met [3]
  time of maximum of Met phosphorylation and ubiquitination after stimulation: two
Met [4]
  time after addition at which In1B-induced degradation of Met is observable: one
Met [4]; HeLa cells, In1B 5 nM, 2 minutes
  total amount of Met two minutes after addition of In1B: strongly reduced
Met [4]; HeLa cells, In1B 5 nM, blot with anti-Met antibody and Streptavidin, actin control
  specificity of the In1B effect for Met versus other cellular proteins: only affected the amount of Met
Met [4]; HeLa cells, In1B removed three minutes after addition, 15 minutes after initial exposure
  degradation of re-synthesized Met when In1B was removed from the medium: no degradation of Met was observed
